Data taken from the supplement of paper PMC10567573.

B1: MIA2 (parent)
chain: NSISSDKEATVPCTEILTEKKDTI
B2: INTS3 (parent)
chain: YPPLEGHVRQGVFSSLNHIVEKRV

Variants of: B1
Assay: protein stability index of a GFP-peptide fusion (GPS, HEK-293T) (PSI 1-6); higher = more stable
Conditions: c terminus: a fixed tail appended
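Further: lentivirally expressed fusions sorted by FACS into six bins by GFP to DsRed ratio, PSI derived from sequencing read proportions per bin multiplied by bin number.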

Row | Variant | protein stability index
1 | NSISSLKEATVPCTEILTEKKDTI [D6L] | 5.06
2 | NSISSIKEATVPCTEILTEKKDTI [D6I] | 4.98
3 | NSISSPKEATVPCTEILTEKKDTI [D6P] | 5.35
4 | NSISSDKDATVPCTEILTEKKDTI [E8D] | 5.5
5 | NSISSDKAATVPCTEILTEKKDTI [E8A] | 5.07
6 | NSISSDVEATVPCTEILTEKKDTI [K7V] | 4.95
7 | NSISSDKEATVPCTPILTEKKDTI [E15P] | 5.16
8 | NSISSDKEAFVPCTEILTEKKDTI [T10F] | 5.27
9 | NSISSDKEAVVPCTEILTEKKDTI [T10V] | 5.29
10 | NSISSDKEATVPGTEILTEKKDTI [C13G] | 5.49
11 | NSIISDKEATVPCTEILTEKKDTI [S4I] | 4.68
12 | NSIKSDKEATVPCTEILTEKKDTI [S4K] | 5.29
13 | NSIVSDKEATVPCTEILTEKKDTI [S4V] | 5.32
14 | NSIYSDKEATVPCTEILTEKKDTI [S4Y] | 5.44
15 | NSIESDKEATVPCTEILTEKKDTI [S4E] | 5.68
16 | NSISSDKEATVPCTEILTEKKDTF [I24F] | 5.33
17 | NSISSDKEATVPCTEILTEKKDTK [I24K] | 5.35
18 | NSISSDKEATVPCTEILTEKKTTI [D22T] | 5.04
19 | NSISSDKEATVPCTEILTEKKMTI [D22M] | 4.62
20 | NSISSDKEATVPCTEILTEKKETI [D22E] | 5.6
21 | NSISSDKEATVPCTEILTEKKWTI [D22W] | 3.49
22 | NSISSDKEATVPCTEILTEKKCTI [D22C] | 4.97
23 | NSISYDKEATVPCTEILTEKKDTI [S5Y] | 5.23

Row | Variant | protein stability index
24 | NSISDDKEATVPCTEILTEKKDTI [S5D] | 5.4
25 | NSISSDKEATVPCTEHLTEKKDTI [I16H] | 5.49
26 | NSISSDKEATVPCTEVLTEKKDTI [I16V] | 5.45
27 | NSISSDKEATVPCTECLTEKKDTI [I16C] | 5.27
28 | NSISSDKEATVPCTEKLTEKKDTI [I16K] | 5.64
29 | NSISSDKEATVPCTETLTEKKDTI [I16T] | 5.63
30 | NSISSDKEATVPCTEYLTEKKDTI [I16Y] | 5.12
31 | NSISSDKEATVPCTERLTEKKDTI [I16R] | 5.57
32 | NSISSDKEATVPCTEELTEKKDTI [I16E] | 5.62
33 | NSISSDKEATVPCTEILQEKKDTI [T18Q] | 5.4
34 | NSISSDKEATVPCTEILWEKKDTI [T18W] | 5.05
35 | NSISSDKEATVPCTEILLEKKDTI [T18L] | 5.11
36 | NSISSDKEATVPCTEILKEKKDTI [T18K] | 5.42
37 | NSISSDKEATVPCTEILVEKKDTI [T18V] | 5.12
38 | NSISSDKEATVPCTEILDEKKDTI [T18D] | 5.72
39 | NSISSDKEATVPCTEILHEKKDTI [T18H] | 5.35
40 | NSESSDKEATVPCTEILTEKKDTI [I3E] | 5.51
41 | NSMSSDKEATVPCTEILTEKKDTI [I3M] | 5.45
42 | NSISSDKEATVACTEILTEKKDTI [P12A] | 5.49
43 | NSISSDKEATVVCTEILTEKKDTI [P12V] | 5.35
44 | NSISSDKEATVICTEILTEKKDTI [P12I] | 5.11
45 | NSISSDKEATEPCTEILTEKKDTI [V11E] | 5.52
46 | NSISSDKEATAPCTEILTEKKDTI [V11A] | 5.38

Row | Variant | protein stability index
47 | NSISSDKEATKPCTEILTEKKDTI [V11K] | 5.59
48 | NSISSDKEATVPCTEILTERKDTI [K20R] | 5.17
49 | NSISSDKEATVPCTEILTENKDTI [K20N] | 5.53
50 | NSISSDKEATVPCTEILTECKDTI [K20C] | 5.25
51 | NSISSDKEATVPCTEILTELKDTI [K20L] | 4.94
52 | NSISSDKEATVPCTEILTEAKDTI [K20A] | 5.34
53 | SSISSDKEATVPCTEILTEKKDTI [N1S] | 5.62
54 | ASISSDKEATVPCTEILTEKKDTI [N1A] | 5.42
55 | NSISSDKEATVPCSEILTEKKDTI [T14S] | 5.36
56 | NSISSDKEATVPCCEILTEKKDTI [T14C] | 5.39
57 | NSISSDKEATVPCMEILTEKKDTI [T14M] | 5.12
58 | NSISSDKEATVPCVEILTEKKDTI [T14V] | 5.42
59 | NRISSDKEATVPCTEILTEKKDTI [S2R] | 5.26
60 | NDISSDKEATVPCTEILTEKKDTI [S2D] | 5.59
61 | NSISSDKEATVPCTEILTEKVDTI [K21V] | 5.1
62 | NSISSDKEATVPCTEILTEKNDTI [K21N] | 5.48
63 | NSISSDKEATVPCTEILTKKKDTI [E19K] | 4.93
64 | NSISSDKEATVPCTEILTIKKDTI [E19I] | 4.72
65 | NSISSDKEATVPCTEILTQKKDTI [E19Q] | 5.22
66 | NSISSDKELTVPCTEILTEKKDTI [A9L] | 5.32
67 | NSISSDKEGTVPCTEILTEKKDTI [A9G] | 5.42

Variants of: B2
Assay: as above
Conditions: c terminus: a fixed tail appended

Row | Variant | protein stability index
68 | YPPLEGHVRQGVFSPLNHIVEKRV [S15P] | 1.54
69 | YPPLEGHVRQGVFSKLNHIVEKRV [S15K] | 2.31
70 | YPPLEGHVRQGVFSDLNHIVEKRV [S15D] | 2.95
71 | YPPLEGHVRQGVFSQLNHIVEKRV [S15Q] | 2.28
72 | YPPLEGHVRQGVFSMLNHIVEKRV [S15M] | 2.43
73 | YPPLEGHVRQGVFLSLNHIVEKRV [S14L] | 1.73
74 | YPPLEGHVRQGVFCSLNHIVEKRV [S14C] | 1.5
75 | YPPLEGHVRQGVFKSLNHIVEKRV [S14K] | 2.6
76 | YPPLEGHVRQGVFMSLNHIVEKRV [S14M] | 2.07
77 | YPPLEGHVRQGVFFSLNHIVEKRV [S14F] | 1.79
78 | YPPLEGHVRQWVFSSLNHIVEKRV [G11W] | 1.34
79 | YPPLEGHVRQQVFSSLNHIVEKRV [G11Q] | 2.35
80 | YPPLEGHVRQLVFSSLNHIVEKRV [G11L] | 1.85
81 | YPPLEGHVRQRVFSSLNHIVEKRV [G11R] | 2.18
82 | YPPLEGHVRQNVFSSLNHIVEKRV [G11N] | 2.29
83 | YPPLEGHVRQTVFSSLNHIVEKRV [G11T] | 2.27
84 | YPPLEGHVRQIVFSSLNHIVEKRV [G11I] | 1.87
85 | YPCLEGHVRQGVFSSLNHIVEKRV [P3C] | 2.78
86 | YPYLEGHVRQGVFSSLNHIVEKRV [P3Y] | 2.08
87 | YPRLEGHVRQGVFSSLNHIVEKRV [P3R] | 2.63
88 | YPKLEGHVRQGVFSSLNHIVEKRV [P3K] | 3.04
89 | YPPLEGHVRQGVTSSLNHIVEKRV [F13T] | 2.98
90 | YPPLEGHVRQGVMSSLNHIVEKRV [F13M] | 3.36
91 | YPPLEGHVRQGVRSSLNHIVEKRV [F13R] | 3.32
92 | YPPLEGHVRQGVSSSLNHIVEKRV [F13S] | 3.65
93 | YPPLEGHVRQGVFSSLNHIVEKRG [V24G] | 3.08
94 | YPPLEGHVRQGVFSSLNHIVEKRP [V24P] | 2.74
